These are literature values, as cited in publication PMC3505834.

For the series, the target named is C3b C3b (Homo sapiens) (UniProt P01024).
C3b C3b (Homo sapiens), sequence (P01024 566-670): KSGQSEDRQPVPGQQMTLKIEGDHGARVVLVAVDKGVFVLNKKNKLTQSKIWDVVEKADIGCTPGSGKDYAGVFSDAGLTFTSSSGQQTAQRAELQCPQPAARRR

CD46, sequence (P15529 35-343): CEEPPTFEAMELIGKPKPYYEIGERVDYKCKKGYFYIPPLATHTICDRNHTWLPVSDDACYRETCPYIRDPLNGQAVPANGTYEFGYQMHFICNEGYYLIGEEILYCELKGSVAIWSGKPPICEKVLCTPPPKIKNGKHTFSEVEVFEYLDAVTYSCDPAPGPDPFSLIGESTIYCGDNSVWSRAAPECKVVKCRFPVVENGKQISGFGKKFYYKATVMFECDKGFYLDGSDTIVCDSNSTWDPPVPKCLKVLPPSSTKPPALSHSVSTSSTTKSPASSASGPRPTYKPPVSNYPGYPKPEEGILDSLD

For the substance CD46 (from UniProt P15529), the Kd was 1000 nM.

In general, Kd refers to the constant that tells how readily two partners part at equilibrium.
